The values that follow come from patent publication US20200157212A1 (Pfizer, published 2020).

Assay [1] deals with T1, Human ROBO2 Ig1-Ig2-His (human, UniProt Q9HCK4 31-220).
T1 construct: the His tag is named only in the SPR paragraphs; the Octet and ELISA paragraphs print 'ROBO2 Ig1-Ig2' without a tag; also called ROBO2 Ig1-2; Human ROBO2 Ig 1,2
T1 sequence: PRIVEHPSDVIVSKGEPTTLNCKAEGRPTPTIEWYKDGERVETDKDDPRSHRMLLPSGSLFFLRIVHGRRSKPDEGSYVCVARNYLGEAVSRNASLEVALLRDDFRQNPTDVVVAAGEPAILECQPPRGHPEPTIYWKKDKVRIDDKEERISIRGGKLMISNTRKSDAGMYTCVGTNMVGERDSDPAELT
As to the kind of experiment: Octet (BLI). (BLI is a label-free optical method that tracks binding on a fibre tip over time.)

For assay [2], the target named is T2, Rat ROBO2 on cells (rat, UniProt Q7TPD3 22-1469 (mouse entry)).
T2 chain: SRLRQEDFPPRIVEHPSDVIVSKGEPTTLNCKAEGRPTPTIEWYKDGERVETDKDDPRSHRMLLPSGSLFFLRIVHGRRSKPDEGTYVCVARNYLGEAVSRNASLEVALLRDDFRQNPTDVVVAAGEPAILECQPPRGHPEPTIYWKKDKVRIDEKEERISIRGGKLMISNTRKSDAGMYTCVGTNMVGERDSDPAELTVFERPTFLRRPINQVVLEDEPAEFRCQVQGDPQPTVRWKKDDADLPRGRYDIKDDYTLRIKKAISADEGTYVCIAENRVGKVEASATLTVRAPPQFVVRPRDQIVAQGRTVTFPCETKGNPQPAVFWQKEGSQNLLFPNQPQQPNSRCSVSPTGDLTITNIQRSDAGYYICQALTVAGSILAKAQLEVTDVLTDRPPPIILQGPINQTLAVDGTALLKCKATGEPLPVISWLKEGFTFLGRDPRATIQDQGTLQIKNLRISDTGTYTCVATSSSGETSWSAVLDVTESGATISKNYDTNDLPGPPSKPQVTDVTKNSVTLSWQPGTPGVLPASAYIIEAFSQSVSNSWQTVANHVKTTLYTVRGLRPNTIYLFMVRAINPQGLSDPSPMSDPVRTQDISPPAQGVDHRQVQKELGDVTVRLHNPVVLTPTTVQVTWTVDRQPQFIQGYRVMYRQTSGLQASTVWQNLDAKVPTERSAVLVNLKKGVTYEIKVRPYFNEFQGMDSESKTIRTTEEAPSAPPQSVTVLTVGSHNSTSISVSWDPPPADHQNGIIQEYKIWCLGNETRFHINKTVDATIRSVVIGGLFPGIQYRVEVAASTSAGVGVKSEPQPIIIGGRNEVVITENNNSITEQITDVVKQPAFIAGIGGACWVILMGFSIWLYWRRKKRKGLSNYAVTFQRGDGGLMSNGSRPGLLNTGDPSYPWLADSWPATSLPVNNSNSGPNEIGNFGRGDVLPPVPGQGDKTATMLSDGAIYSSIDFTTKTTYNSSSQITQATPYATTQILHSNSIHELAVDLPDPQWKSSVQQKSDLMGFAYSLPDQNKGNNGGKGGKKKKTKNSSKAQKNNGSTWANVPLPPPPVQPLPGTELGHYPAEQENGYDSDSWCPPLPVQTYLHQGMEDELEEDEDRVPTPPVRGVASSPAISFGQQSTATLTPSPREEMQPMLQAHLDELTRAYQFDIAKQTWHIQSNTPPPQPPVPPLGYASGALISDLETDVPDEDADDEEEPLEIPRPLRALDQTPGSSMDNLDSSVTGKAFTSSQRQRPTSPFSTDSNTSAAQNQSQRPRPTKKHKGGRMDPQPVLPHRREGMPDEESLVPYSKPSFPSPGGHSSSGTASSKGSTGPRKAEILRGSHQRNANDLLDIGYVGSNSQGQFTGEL
As to the kind of experiment: cell-based or functional assay.

Assay [3] addresses T1, Human ROBO2 Ig1-Ig2-His. As to the kind of experiment: SPR, Biacore T200, Abcs35 immobilized on CM5 chip, ROBO2 Ig1-Ig2-His as analyte. How it is done: (§1) […] Association and dissociation were followed over time.
(§2) Based upon several criteria, Abcs25 and Abcs35 were selected for further characterization. Using flow cytometry, improvement in the binding EC₅₀ to human ROBO2 relative to the parental 93H2 was evaluated. Starting at 6.7 nM, 11-point, 3-fold dilution series were made for each antibody and used to stain HEK293 overexpressing human ROBO2 as described above for the ROBO2 fold selectivity (Example 2). […] In addition to measuring improved binding to human ROBO2, it was important to ensure that high affinity binding to both cynomolgus monkey ROBO2 and rat ROBO2 was maintained. Using HEK293 cells overexpressing either cynomolgus monkey ROBO2 or rat ROBO2, the relative dose-dependent binding of 93H2, Abcs25 and Abcs35 was evaluated as described above. High affinity binding to both cynomolgus monkey and rat ROBO2 was maintained in Abcs25 and Abcs35 (Table 4). […] Briefly, Abcs35 was immobilized to 300 resonance units (RU) on a CM5 chip. Association of ROBO2 Ig1-Ig2-His (ROBO2) was measured over 5 minutes and dissociation was followed for a period of 10 minutes.
A general note: SPR reads the build-up and loss of mass on a sensor chip optically.

For assay [4], the target named is T1, Human ROBO2 Ig1-Ig2-His. As to the kind of experiment: SPR (Biacore T200), Abcs35 immobilized on a CM5 chip, ROBO2 Ig1-Ig2-His as analyte; column head kdis(1/s). The method, then: as §1, §2

B1: 93H2 (antibody, human IgG1, kappa, V domains shown)
VH: EVQLVQSGAEVKKPGASVKVSCKASGYTFTGYYMHWVRQAPGQGLEWMGWINPNSGATNFPQKFQGRVTMTRDTSITTAYMDLSRLRSDDTAVYYCARESGDDAFDIWGQGTMVTVSS
VL: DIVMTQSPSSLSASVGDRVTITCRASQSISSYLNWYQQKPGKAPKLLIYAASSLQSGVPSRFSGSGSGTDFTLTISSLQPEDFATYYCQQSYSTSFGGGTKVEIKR
notes: also called parental 93H2; 93H2 mAb
On to B1, for which, in assay [1], the Kd (usually a measure of binding affinity in units of concentration) is 37 nM.

B2: Abcs35 (antibody, human IgG1, kappa)
heavy: EVQLVQSGAEVKKPGASVKVSCKASGYTFTGYYMHWVRQAPGQGLEWMGWINPKNGDTEFPQKFQGRVTMTRDTSITTAYMDLSRLRSDDTAVYYCARESGDDAFDIWGQGTMVTVSSASTKGPSVFPLAPSSKSTSGGTAALGCLVKDYFPEPVTVSWNSGALTSGVHTFPAVLQSSGLYSLSSVVTVPSSSLGTQTYICNVNHKPSNTKVDKKVEPKSCDKTHTCPPCPAPEAAGAPSVFLFPPKPKDTLMISRTPEVTCVVVDVSHEDPEVKFNWYVDGVEVHNAKTKPREEQYNSTYRVVSVLTVLHQDWLNGKEYKCKVSNKALPAPIEKTISKAKGQPREPQVYTLPPSREEMTKNQVSLTCLVKGFYPSDIAVEWESNGQPENNYKTTPPVLDSDGSFFLYSKLTVDKSRWQQGNVFSCSVMHEALHNHYTQKSLSLSPGK
light: DIVMTQSPSSLSASVGDRVTITCRASQSISSYLNWYQQKPGKAPKLLIYAASSLQSGVPSRFSGSGSGTDFTLTISSLQPEDFATYYCQQSVGLFFGGGTKVEIKRTVAAPSVFIFPPSDEQLKSGTASVVCLLNNFYPREAKVQWKVDNALQSGNSQESVTEQDSKDSTYSLSSTLTLSKADYEKHKVYACEVTHQGLSSPVTKSFNRGEC
notes: fully human IgG1; VH of Ab96 with VL of Ab123
Regarding B2, in assay [2], the “IC50, restoration of neuronal cell migration (SVZa assay)” value was 0.027 nM. Also, binding in assay [3] was characterised by a dissociation constant (Kd) of 0.268 nM. Besides, in assay [4], the koff (commonly the rate constant with which the complex falls apart) was determined as 0.00793 s⁻¹.
